Test [1] has as its target T1, Der f 1 (house dust mite, UniProt P16311 99-321).
T1 construct: Also used oligonucleotide-barcoded for cell staining
T1 sequence (looked up): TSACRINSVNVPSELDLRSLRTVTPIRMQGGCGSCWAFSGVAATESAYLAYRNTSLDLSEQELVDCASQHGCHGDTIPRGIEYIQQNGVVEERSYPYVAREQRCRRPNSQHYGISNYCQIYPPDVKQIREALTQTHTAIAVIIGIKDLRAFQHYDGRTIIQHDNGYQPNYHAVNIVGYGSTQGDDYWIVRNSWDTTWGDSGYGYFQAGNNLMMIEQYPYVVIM
The experiment in a line: barcode rank score against control Ole e 1.

In test [2] the target is T2, Der p 2 (house dust mite, UniProt P49278 18-146).
T2 construct: Also used oligonucleotide-barcoded for cell staining
T2 sequence (looked up): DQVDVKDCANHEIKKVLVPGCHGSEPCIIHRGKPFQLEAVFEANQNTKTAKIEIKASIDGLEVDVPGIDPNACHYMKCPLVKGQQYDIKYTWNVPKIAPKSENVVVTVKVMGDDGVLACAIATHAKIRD
Kind of test: barcode rank score against control Ole e 1.

In test [3] the target is T3, Ole e 1 (olive, UniProt P19963 1-145).
T3 construct: Also used oligonucleotide-barcoded for cell staining; also called olive allergen; negative control allergen
T3 sequence (looked up): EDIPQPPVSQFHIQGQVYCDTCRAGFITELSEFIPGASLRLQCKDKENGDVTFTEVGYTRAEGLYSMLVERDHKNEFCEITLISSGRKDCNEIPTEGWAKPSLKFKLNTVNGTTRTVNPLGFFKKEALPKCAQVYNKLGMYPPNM
The experiment in a line: centered log-ratio of barcode count. The text has this:
(§1) The barcoded antigen library was mapped by the CellRanger software to a custom short-read reference that contained the DNA tag sequences of the four barcoded antigens, namely, Der p 1, Der p 2, Der f 1 and Ole e 1. These tag sequences were quantified across all cells and were normalized by taking the centered log-ratio (CLR) per barcoded antigen across each sample capture. In addition, background antigen signal for each barcoded antigen was removed by DSB (Denoised and Scaled by Background). Both the CLR and the DSB normalized values were used to quantify the target antigen signals, namely, those for Der p 1, Der p 2 and Der f 1, against the control signal, namely, that for Ole e 1.

Test [4] addresses T1, Der f 1. The experiment in a line: centered log-ratio of barcode count.
From the text: as §1

Test [5] addresses T2, Der p 2. Kind of test: centered log-ratio of barcode count.
From the text: as §1

Test [6] has as its target T3, Ole e 1. Kind of test: barcoded-antigen count on source cell.
The target in test [7] is T1, Der f 1. The experiment in a line: barcoded-antigen count on source cell.
The target in test [8] is T2, Der p 2. The experiment in a line: barcoded-antigen count on source cell.
Test [9] deals with T2, Der p 2. The experiment in a line: barcoded antigen sequencing of single IgE PCs with trapped IgE [cont.].
From the text: as §1

In test [10] the target is T2, Der p 2. The experiment in a line: antigen specificity score against Ole e 1 from barcode counts of single IgE PCs [cont.]. How it is done:
Antigen specificity score (AgSS) for IgG were calculated by subtracting the quantile of hIL-6Rα barcoded UMI counts multiplied by a penalty factor (x) from the quantile of hIL-4Rα barcoded UMI counts, AgSS=Q_hIL-4Rα-Q_hIL-6Rα^x. AgSS for IgE were calculated with a similar formula for mouse and human single cell data. For IgE scores the target antigens were either Der p1, Der p2 or Der f1 and the control was always Ole e1.
Following processing of the three single-cell libraries, the gene expression and V(D)J region sequencing data were used to subset PCs with a valid IgE constant region and detectable expression of IgE and CD79a but lacking the expression of Ms4a1 and CD19 typically found in non-PC B cells. IgE-expressing PCs were then assessed for differential expression against additional IgA, IgG, and IgM plasma cell isotypes to further characterize the unique transcriptional signature of IgE-secreting PCs. IgE-secreting PCs were then assessed for antigen specificity by comparing the normalized levels of the target antigens, namely, Der p 1, Der p 2, or Der f 1, against the normalized level of the control antigen Ole e 1. This was performed by calculating an empirical score for each target antigen and subtracting the […] with a penalty factor. The formula used to do is set forth below: […]

Test [11] concerns the target T2, Der p 2. Kind of test: barcoded antigen sequencing of single IgE PCs with trapped IgE.
Test [12] addresses T2, Der p 2. The experiment in a line: ELISA, coated Der p2. How it is done: After selecting allergen-specific antibodies, relative binding to Der p 1, Der p 2, and Der f 1 were quantified by ELISA. […] Specifically, binding microtiter plates were coated with 100 μl of 2 μg/mL of natural Der p 1, Der p 2, Der f 1, and Ole e 1 in PBS overnight at 4′C. IgE antibodies were prepared at a concentration of 1 μg/mL and serially diluted three-fold in PBS with 0.5% w/v BSA. After washing with 0.05% v/v Tween® 20 in PBS and blocking in PBS with 0.5% w/v BSA, 100 μl of the diluted IgE antibodies were transferred to the plates and incubated for one hour at ambient temperature. Subsequently, 100 μL of anti-mouse IgE antibody conjugated to horse-radish peroxidase (HRP) diluted at 1:5000 was added. The plates were then incubated for one hour at ambient temperature, and washed in 0.05% v/v/Tween® 20 in PBS. Subsequently, the HRP substrate 3,3′,5,5′-tetramethylbenzidine (TMB) was added. The reaction was stopped (with 100 μL of sulfuric acid 2.0 N) and optical density values determined using a plate reader at 450 nm.
(An ELISA detects its analyte on a solid surface through an enzyme-linked reagent.)

For test [13], the target named is T4, human IL-4 Receptor α (hIL-4Rα) ectodomain (Example 17) (human, UniProt P24394 26-232, AlexaFluor 647 label, or biotin bound to PE-labeled streptavidin tetramer).
T4 construct: extracellular domain; Used as AF647-labelled monomer (5 nM) and as biotinylated ectodomain on SA-PE tetramer; also called hIL-4Rα-AlexaFluor647 (monomeric); hIL-4Rα-biotin-StAv-PE (tetrameric)
The experiment in a line: method not stated.

The target in test [14] is T4, human IL-4 Receptor α (hIL-4Rα) …. Kind of test: Biacore at +25°C.

B1: IgE mAb 1_2 (antibody, V domains shown)
VH: QIQLVQSGPELKKPGETVKISCKASGYTFTTYGMSWVKQAPGKGLKWMGWINTYSGVPTYADDFKGRFVFSLETSASTAYLQINNLKNEDTATYFCARAYYYGSSYLIWYFDVWGTGTTVTVSS
VL: NIVLTQSPASLAVSLGQRATISCRASESVDSYGNSFMHWYQQKPGQPPKLLIYLASNLESGVPARFSGSGSRTDFTLTIDPVEADDAATYYCQQNNEDPYTFGGGTKLEIK
notes: IgE (IGHE, IGKC) from HDM-exposed mouse, BoneMarrow
As to B1, in the test with Der f 1 [1], the Derf1_ab_rank is 0.982. Also, in the test with Der p 2 [2], the Derp2_ab_rank stood at 1. Also, in the test with Ole e 1 [3], the Olee1_ab_clr is -1.12. The Derf1_ab_clr in the test with Der f 1 [4] worked out at 1.32. Moreover, the Derp2_ab_clr with Der p 2 [5] was determined as 1.65. This molecule displayed an Olee1_ab_raw with Ole e 1 [6] of 0 counts. In the test with Der f 1 [7], the Derf1_ab_raw is 37 counts. In the test with Der p 2 [8], the Derp2_ab_raw was 60 counts.

B2: Candidate ID 16 (antibody, V domains shown)
VH: EVHLQQSGPDLVKPGASVMISCQASGYSFTAYYINWVKQSPEKSLEWIGEINPGSGGVIYNRKFEAKATLIVDKSSNTAFMLLTRLTSEDSAIYYCARKGFYQFDYWGQGTTLTVSS
VL: SVVMTQIPKFLVVSAGDRVTITCKASQSVNDGVFWYQQKTGQSPKLVIYHTSNRYTGVSDRFTGSGYGTEFTFTISAVQSEDLAIYFCQQDYTSPLTFGGGTRLEIK
notes: IgE PCs LN
As to B2, in the test with Der p 2 [9], the “Normalized Barcode Count” value is 0.58. In the test with Der p 2 [10], the “Antigen Score” value is 0.336. For the same molecule, the “Raw Antigen Barcode Count” value with Der p 2 [11] was determined as 6.

B3: IgE mAb 21_2 (antibody, V domains shown)
VH: QVQLQQSGPELVKPGASVKISCKAPGNAFSYSWMNWVKQRPGKGLEWVGRIYPGDGDTNYNGKFMGKATLTADKSSNTAYIQLSSLTSEDSAVYFCARSGGGTLYWYFDVWGTGTTVTVSS
VL: DIVMTQSPSSLALSVGQKVTMNCRSSQSLLNSFNQKNYLAWFQQKPGQSPRLLIYFASTRESGVPDRFIGSGSGTDFTLTISSVQAEDLADYFCQQHYNTPLTFGAGTTLELK
notes: IgE (IGHE, IGKC) from HDM-exposed mouse, LymphNode
Usually EC50 (read off the curve) stands for the concentration needed to bring the measured effect to its halfway point. Read a low EC50 (read off the curve) as higher potency in that assay. The molecule B3 returned a Derf1_ab_rank in the test with Der f 1 [1] of -0.386. In the test with Der p 2 [2], this molecule came in with a Derp2_ab_rank of 0.412. Further, in the test with Ole e 1 [3], the Olee1_ab_clr is 0.826. For the same molecule, the Derf1_ab_clr with Der f 1 [4] was -0.795. In addition, the Derp2_ab_clr with Der p 2 [5] stood at 4.01. This molecule came in with an Olee1_ab_raw with Ole e 1 [6] of 4 counts. In the test with Der f 1 [7], this molecule yielded a Derf1_ab_raw of 1 counts. The Derp2_ab_raw with Der p 2 [8] was 215 counts. Further, the “EC50 (read off the curve)” value with Der p 2 [12] is roughly 0.2 nM.

B4: ab_1 (antibody, V domains shown)
VH: EVQLVESGGGLEQPGGSLRLSCAGSGFTFSDYAMTWVRQAPGKGLEWVSSISGSGGNTYYADSVKGRFTISRDNSKNTLYLQMNSLRAEDTAVYYCAKDALTIAIRPYYYGLDVWGQGTTVTVSS
VL: DIVMTQSPLSLPVTPGEPASISCRSSQSLDYSYGYNYLDWYLQKSGQSPQLLIYLASNRASGVPDRFSGSGSGTDFTLKISRVEAEDVGFYYCMQSLSTPYTFGQGTKLEIK
What is called Kd is the concentration at which binding is half-saturated. A high value points to lower affinity. In turn, B4 had a Kd in test [13] of 1.68 nM. The “t1/2 pH7.4” value in test [14] is greater than 116 min.

B5: ab_2 (antibody, V domains shown)
VH: EVQLVESGGGLEQPGGSLRLSCAGSGFTFRDYAMTWVRQAPGKGLEWVSSISGSGSNTYYADSVKGRFTISRDNSKNTLYLQMNSLRAEDTAVYYCARDRLTAAVRPYYYGLDVWGQGTTVTVSS
VL: DIVMTQSPLSLPVTPGEPASISCRSSQSLDYSSGYNYLDWYLQKSGQSPQLLIYLASNRASGVPDRFSGSGSGTDFTLKISRVEAEDVGFYYCMQSLQTPYTFGQGTKLEIK
B5 showed a Kd in test [13] of 3.26 nM. Further, the “t1/2 pH7.4” value in test [14] was 21.7 min.

B6: ab_3 (antibody, V domains shown)
VH: EVQLVESGGGLEQPGGSLRLSCAGSGFTFRDYAMTWVRQAPGKGLEWVSSISGSGGNTYYADSVKGRFTISRDNSKNTLYLQMNSLRAEDTAVYYCAKDRLSKTIRPYYYGLDVWGQGTTVTVSS
VL: DIVMTQSPLSLPVTPGEPASISCRSSQSLLYSTGYNYLDWYLQKSGQSPQLLIYLGSNRASGVPDRFSGSGSGTDFTLKISRVEAEDVGFYYCMQSLSTPYTFGQGTKLEIK
B6 registered a Kd in test [13] of 14.2 nM. In addition, the “t1/2 pH7.4” value in test [14] was 10.6 min.

Values taken from US20230349919A1 (Regeneron, published 2023).
